The results in this text go back to US20200157190A1.

Assay [1] deals with Antigen 2. Nature of the assay: ELISA, supernatant 1 TO 4096, Plate 2 (Antigen 2), column 6, BLANK 0.06.
Assay [2] deals with Antigen 1. The assay can be described thus: ELISA, supernatant 1 TO 4, Plate 1 (Antigen 1), column 6, BLANK 0.07. Background: An ELISA detects its analyte on a solid surface through an enzyme-linked reagent.
The target of assay [3] is Antigen 1. The assay can be described thus: ELISA, supernatant 1 TO 64, Plate 1 (Antigen 1), column 6, BLANK 0.07.
The target in assay [4] is Antigen 1. Nature of the assay: ELISA, supernatant UNDILUTED, Plate 1 (Antigen 1), column 6, BLANK 0.07.
In assay [5] the target is Antigen 2. The assay can be described thus: ELISA, supernatant 1 TO 256, Plate 2 (Antigen 2), column 6, BLANK 0.06.
Assay [6] concerns the target Antigen 2. Nature of the assay: ELISA, supernatant 1 TO 16, Plate 2 (Antigen 2), column 6, BLANK 0.06.
Assay [7] concerns the target Antigen 2. Nature of the assay: ELISA, supernatant 1 TO 4, Plate 2 (Antigen 2), column 6, BLANK 0.06.
Assay [8] deals with Antigen 2. Nature of the assay: ELISA, supernatant UNDILUTED, Plate 2 (Antigen 2), column 6, BLANK 0.06.
Assay [9] addresses Antigen 1. Nature of the assay: ELISA, supernatant 1 TO 16, Plate 1 (Antigen 1), column 6, BLANK 0.07.
For assay [10], the target named is Antigen 1. The assay can be described thus: ELISA, supernatant 1 TO 4096, Plate 1 (Antigen 1), column 6, BLANK 0.07.
Assay [11] deals with Antigen 2. Nature of the assay: ELISA, supernatant 1 TO 1024, Plate 2 (Antigen 2), column 6, BLANK 0.06.
For assay [12], the target named is Antigen 1. The assay can be described thus: ELISA, supernatant 1 TO 256, Plate 1 (Antigen 1), column 6, BLANK 0.07.
The target in assay [13] is Antigen 1. Nature of the assay: ELISA, supernatant 1 TO 1024, Plate 1 (Antigen 1), column 6, BLANK 0.07.
For assay [14], the target named is Antigen 2. Nature of the assay: ELISA, supernatant 1 TO 64, Plate 2 (Antigen 2), column 6, BLANK 0.06.
Assay [15] addresses Antigen 1. The assay can be described thus: ELISA, supernatant 1 TO 1024, Plate 1 (Antigen 1), column 8, BLANK 0.07.
Assay [16] addresses Antigen 2. The assay can be described thus: ELISA, supernatant 1 TO 16, Plate 2 (Antigen 2), column 8, BLANK 0.07.
Assay [17] has as its target Antigen 2. The assay can be described thus: ELISA, supernatant 1 TO 4, Plate 2 (Antigen 2), column 8, BLANK 0.07.
Assay [18] addresses Antigen 2. Nature of the assay: ELISA, supernatant 1 TO 1024, Plate 2 (Antigen 2), column 8, BLANK 0.07.
Assay [19] concerns the target Antigen 2. Nature of the assay: ELISA, supernatant 1 TO 4096, Plate 2 (Antigen 2), column 8, BLANK 0.07.
In assay [20] the target is Antigen 1. The assay can be described thus: ELISA, supernatant 1 TO 256, Plate 1 (Antigen 1), column 8, BLANK 0.07.
Assay [21] deals with Antigen 2. The assay can be described thus: ELISA, supernatant 1 TO 256, Plate 2 (Antigen 2), column 8, BLANK 0.07.
Assay [22] concerns the target Antigen 2. The assay can be described thus: ELISA, supernatant 1 TO 64, Plate 2 (Antigen 2), column 8, BLANK 0.07.
Assay [23] concerns the target Antigen 1. Nature of the assay: ELISA, supernatant 1 TO 4096, Plate 1 (Antigen 1), column 8, BLANK 0.07.
Assay [24] addresses Antigen 1. The assay can be described thus: ELISA, supernatant 1 TO 64, Plate 1 (Antigen 1), column 8, BLANK 0.07.
The target in assay [25] is Antigen 1. Nature of the assay: ELISA, supernatant 1 TO 16, Plate 1 (Antigen 1), column 8, BLANK 0.07.
In assay [26] the target is Antigen 1. The assay can be described thus: ELISA, supernatant UNDILUTED, Plate 1 (Antigen 1), column 8, BLANK 0.07.
For assay [27], the target named is Antigen 1. Nature of the assay: ELISA, supernatant 1 TO 4, Plate 1 (Antigen 1), column 8, BLANK 0.07.
The target in assay [28] is Antigen 2. Nature of the assay: ELISA, supernatant UNDILUTED, Plate 2 (Antigen 2), column 8, BLANK 0.07.
In assay [29] the target is Antigen 1. The assay can be described thus: ELISA, supernatant 1 TO 4, Plate 1 (Antigen 1), column 10, BLANK 0.07.
For assay [30], the target named is Antigen 2. The assay can be described thus: ELISA, supernatant UNDILUTED, Plate 2 (Antigen 2), column 10, BLANK 0.07.
In assay [31] the target is Antigen 2. Nature of the assay: ELISA, supernatant 1 TO 64, Plate 2 (Antigen 2), column 10, BLANK 0.07.
Assay [32] has as its target Antigen 2. Nature of the assay: ELISA, supernatant 1 TO 4, Plate 2 (Antigen 2), column 10, BLANK 0.07.
The target of assay [33] is Antigen 2. Nature of the assay: ELISA, supernatant 1 TO 16, Plate 2 (Antigen 2), column 10, BLANK 0.07.
The target of assay [34] is Antigen 1. Nature of the assay: ELISA, supernatant 1 TO 256, Plate 1 (Antigen 1), column 10, BLANK 0.07.
Assay [35] deals with Antigen 1. The assay can be described thus: ELISA, supernatant 1 TO 16, Plate 1 (Antigen 1), column 10, BLANK 0.07.
Assay [36] addresses Antigen 1. The assay can be described thus: ELISA, supernatant UNDILUTED, Plate 1 (Antigen 1), column 10, BLANK 0.07.
Assay [37] has as its target Antigen 1. The assay can be described thus: ELISA, supernatant 1 TO 4096, Plate 1 (Antigen 1), column 10, BLANK 0.07.
For assay [38], the target named is Antigen 2. The assay can be described thus: ELISA, supernatant 1 TO 256, Plate 2 (Antigen 2), column 10, BLANK 0.07.
For assay [39], the target named is Antigen 2. Nature of the assay: ELISA, supernatant 1 TO 4096, Plate 2 (Antigen 2), column 10, BLANK 0.07.
Assay [40] deals with Antigen 1. Nature of the assay: ELISA, supernatant 1 TO 64, Plate 1 (Antigen 1), column 10, BLANK 0.07.
Assay [41] concerns the target Antigen 2. Nature of the assay: ELISA, supernatant 1 TO 1024, Plate 2 (Antigen 2), column 10, BLANK 0.07.
The target in assay [42] is Antigen 1. The assay can be described thus: ELISA, supernatant 1 TO 1024, Plate 1 (Antigen 1), column 10, BLANK 0.07.

B1: Heavy Chain Construct 3 with Light Chain Construct 2 (VH1-VH2/VL2) (antibody)
heavy: QSVEESGGRLVTPGTPLTLTCTVSGFSLNTNAIRWVRQAPGKGLEWIGAIDASGNTYYASWAKGRFTISKTSTTVDLKITSPTTEDTATYFCNRFNTANIWGPGTLVTVSSGQPKAPSVFPLAPCCGDTPSSTVTLGCLVKGYLPEPVTVTWNSGTLTNGVRTFPSVRQSSGLYSLSSVVSVTSSSQPVTCNVAHPATNTKVDKTVAPSTCSKPMCPPPELLGGRPQPQPQPQPQPQPQPQPQPQPQPQPQPQPQPQSRQSLEESGGRLVSPGTPLTLTCTASGFSLSSNAMGWVRQAPGEGLEYIGIIRPGGSTYYASWAKGRFTISKTSSTTVDLKMTSLTTEDTATYFCARAWDIWGPGTLVTVSLGQPKAPSVFPLAPCCGDTPSSTVTLGCLVKGYLPEPVTVTWNSGTLTNGVRTFPSVRQSSGLYSLSSVVSVTSSSQPVTCNVAHPATNTKVDKTVAPSTCSKPTCPPPELLGGPSVFIFPPKPKDTLMISRTPEVTCVVVDVSQDDPEVQFTWYINNEQVRTARPPLREQQFNSTIRVVSTLPIAHQDWLRGKEFKCKVHNKALPAPIEKTISKARGQPLEPKVYTMGPPREELSSRSVSLACMINGFYPSDISVEWEKNGKAEDNYKTTPAVLDSDGSYFLYSKLSVPTSEWQRGDVFTCSVMHEALHNHYTQKSISRSPGK
light: AFELTQTPSSVEAAVGGTVTIRCQASQSISNQLSWYQQKPGQPPKRLIYRASTLASGVPARFKGSGSGTAFTLTISDLECADGATYYCQSFYYTDVIDYNAFGGGTEVVVTGDPVAPTVLIFPPAADQVATGTVTIVCVANKYFPDVTVTWEVDGTTQTTGIENSKTPQNSADCTYNLSSTLTLTSTQYNSHKEYTCKVTQGTTSVVQSFNRGDC
Turning to B1, the ELISA plate reading amounted to 0.06 with Antigen 2 [1]; 0.11 with Antigen 1 [2]; 0.09 with Antigen 1 [3]; 0.22 with Antigen 1 [4]; 0.11 with Antigen 2 [5]; 0.67 in the assay with Antigen 2 [6]. Also, the ELISA plate reading stood at 1.4 with Antigen 2 [7]; 2.04 with Antigen 2 [8]; 0.07 in the assay with Antigen 1 [9]; 0.06 with Antigen 1 [10]; 0.08 in the assay with Antigen 2 [11]; 0.06 with Antigen 1 [12]. Moreover, the values for the ELISA plate reading in the assay with Antigen 1 [13] and in the assay with Antigen 2 [14] were 0.06 and 0.26, respectively.

B2: VH2-VH2 / VL2 (antibody)
heavy chain (VH2-CH1, PQ linker, VH2-CH1, hinge, CH2, CH3): QSLEESGGRLVSPGTPLTLTCTASGFSLSSNAMGWVRQAPGEGLEYIGIIRPGGSTYYASWAKGRFTISKTSSTTVDLKMTSLTTEDTATYFCARAWDIWGPGTLVTVSLGQPKAPSVFPLAPCCGDTPSSTVTLGCLVKGYLPEPVTVTWNSGTLTNGVRTFPSVRQSSGLYSLSSVVSVTSSSQPVTCNVAHPATNTKVDKTVAPSTCSKPTCPPPELLGGRPQPQPQPQPQPQPQPQPQPQPQPQPQPQPQPQSRQSLEESGGRLVSPGTPLTLTCTASGFSLSSNAMGWVRQAPGEGLEYIGIIRPGGSTYYASWAKGRFTISKTSSTTVDLKMTSLTTEDTATYFCARAWDIWGPGTLVTVSLGQPKAPSVFPLAPCCGDTPSSTVTLGCLVKGYLPEPVTVTWNSGTLTNGVRTFPSVRQSSGLYSLSSVVSVTSSSQPVTCNVAHPATNTKVDKTVAPSTCSKPTCPPPELLGGPSVFIFPPKPKDTLMISRTPEVTCVVVDVSQDDPEVQFTWYINNEQVRTARPPLREQQFNSTIRVVSTLPIAHQDWLRGKEFKCKVHNKALPAPIEKTISKARGQPLEPKVYTMGPPREELSSRSVSLACMINGFYPSDISVEWEKNGKAEDNYKTTPAVLDSDGSYFLYSKLSVPTSEWQRGDVFTCSVMHEALHNHYTQKSISRSPGK
light chain: B1 light
Turning to B2, the ELISA plate reading with Antigen 1 [15] came out at 0.08; with Antigen 2 [16] it was 2.14; in the assay with Antigen 2 [17], 2.12; with Antigen 2 [18], 0.68; with Antigen 2 [19] it was 0.33; with Antigen 1 [20] it was 0.06. For the same molecule, the ELISA plate reading with Antigen 2 [21] was 1.47; in the assay with Antigen 2 [22], 2.1; in the assay with Antigen 1 [23] it was 0.07; with Antigen 1 [24] it was 0.01; with Antigen 1 [25] it was 0.16; in the assay with Antigen 1 [26] it was 0.15. Further, the ELISA plate reading with Antigen 1 [27] was 0.12; with Antigen 2 [28] it was 2.28.

B3: Original Heavy Chain (VH2) and Light Chain (VL2) that recognizes Antigen 2 (antibody, V domains shown)
VH: QSLEESGGRLVSPGTPLTLTCTASGFSLSSNAMGWVRQAPGEGLEYIGIIRPGGSTYYASWAKGRFTISKTSSTTVDLKMTSLTTEDTATYFCARAWDIWGPG
VL: AFELTQTPSSVEAAVGGTVTIRCQASQSISNQLSWYQQKPGQPPKRLIYRASTLASGVPARFKGSGSGTAFTLTISDLECADGATYYCQSFYYTDVIDYNAFGGGTEVVVTG
For B3, the ELISA plate reading with Antigen 1 [29] was found to be 0.12; with Antigen 2 [30], 2.27; in the assay with Antigen 2 [31], 2.19; in the assay with Antigen 2 [32], 2.38; in the assay with Antigen 2 [33], 2.24; with Antigen 1 [34] it was 0.08. Moreover, the ELISA plate reading is 0.08 with Antigen 1 [35]; 0.09 in the assay with Antigen 1 [36]; 0.08 in the assay with Antigen 1 [37]; 1.68 in the assay with Antigen 2 [38]; 0.39 with Antigen 2 [39]; 0.08 with Antigen 1 [40]. The ELISA plate reading with Antigen 2 [41] stood at 0.94; with Antigen 1 [42], 0.1.
